± gives the uncertainty stated by the source.

The source of these data is the supplement of paper PMC7877785.

The data set can be described thus: self-splicing fitness, log relative to wild type (ln ratio); higher = more splicing; Tetrahymena group I intron in knt gene, E. coli kanamycin selection, DiMSum; sequences stand for … in CUCUCU…GGAGGGAAAAGUUAUCAGGCAUGCACCUGGUAGCUAGUCUUUAAACCAAUAGAUUGCAUCGGUUUAAAAGGCAAGACCGUCAAAUUGCGGGAAAGGGGUCAACAGCCGUUCAGUACCAAGUCUCAGGGGAAACUUUGAGAUGGCCUUGCAAAGGGUAUGGUAAUAAGCUGACGGACAUGGUCCUAACCACGCAGCCAAGUCCUAAGUCAACAGAUCUUCUGUUGAUAUGGAUGCAGUUCACAGACUAAAUGUCGGUCGGGGAAGAUGUAUUCUUCUCAUAAGAUAUAGUCGGACCUCUCCUUAAUGGGAGCUAGCGGAUGAAGUGAUGCAACACUGGAGCCGCUGGGAACUAAUUUGUAUGCGAAAGUAUAUUGAUUAGUUUUGGAGUACUCGUGGUCG
The method, boiled down: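 The eight P1ex-region nucleotides of an intron in the knt kanamycin-resistance gene on pET-22b(+) were all randomised and the library put into E. coli BL21(DE3). Six replicate transformations were grown overnight at 37°C or 30°C on LB agar with or without 25 μg/mL kanamycin, together with 100 μg/mL carbenicillin, 50 μM IPTG and 0.2% rhamnose. Colonies were pooled and amplicon-sequenced on an Illumina HiSeq 2500. Fitness from DiMSum is the error-weighted combination of wild-type-normalised replicate fold changes, kanamycin over none.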

As to AUCUAGCAAUAUUACGGCUG, the “self-splicing fitness (ln)” value (30 °C) is -1.21 ± 0.14 and the “self-splicing fitness (ln)” value (37 °C) is 0.594 ± 0.18.
Regarding GAAAAGCAAUAUUACGGCGC, the “self-splicing fitness (ln)” value reads like this: (30 °C) 0.706 ± 0.11; (37 °C) 0.245 ± 0.18.
On to AGGGAGCAAUAUUACGCAAG, for which, for the setting “37 °C”, the “self-splicing fitness (ln)” value is -1.54 ± 0.3.
Take UGCUAGCAAUAUUACGCGGA: the “self-splicing fitness (ln)” value (30 °C) was -2.16 ± 0.12 and the “self-splicing fitness (ln)” value (37 °C) was -1.24 ± 0.12.
Consider UCCCAGCAAUAUUACGCCUA, for which the “self-splicing fitness (ln)” value reads like this: (30 °C) -1.41 ± 0.078; (37 °C) -1.34 ± 0.08.
UAGCAGCAAUAUUACGACAG: the “self-splicing fitness (ln)” value (30 °C) is -0.896 ± 0.1 and the “self-splicing fitness (ln)” value (37 °C) was -0.68 ± 0.13.
Take ACUAAGCAAUAUUACGCUCC: the “self-splicing fitness (ln)” value is, setting by setting: (30 °C) -1.24 ± 0.096; (37 °C) -0.322 ± 0.13.
Regarding GCGCAGCAAUAUUACGCACC, the “self-splicing fitness (ln)” value (30 °C) is -3.7 ± 0.2 and the “self-splicing fitness (ln)” value (37 °C) is -2.41 ± 0.25.
Consider AUUUAGCAAUAUUACGUGUC, for which the “self-splicing fitness (ln)” value by setting is: (30 °C) -2.55 ± 0.42; (37 °C) -2.87 ± 0.43.
Turning to GCCUAGCAAUAUUACGGAGA, the “self-splicing fitness (ln)” value is, setting by setting: (30 °C) -1.16 ± 0.11; (37 °C) -1.06 ± 0.11.
For the sequence CUCAAGCAAUAUUACGGGCC, the “self-splicing fitness (ln)” value is, setting by setting: (30 °C) -4.15 ± 0.35; (37 °C) -2.78 ± 0.36.
CCACAGCAAUAUUACGAGGG: the “self-splicing fitness (ln)” value (30 °C) was -3.22 ± 0.12 and the “self-splicing fitness (ln)” value (37 °C) is -3.11 ± 0.22.
On the same counts, the results for CUAUAGCAAUAUUACGAUGU are -3.67 ± 0.4 and -3.04 ± 0.43.
As for AGAUAGCAAUAUUACGCUUG, the “self-splicing fitness (ln)” value by setting is: (30 °C) -2.48 ± 0.12; (37 °C) -0.783 ± 0.13.
On the same counts, the results for UGAGAGCAAUAUUACGCAGC are -3.13 ± 0.23 and -2.16 ± 0.3.
On the same counts, the results for UGCCAGCAAUAUUACGCAGU are -4.11 ± 0.24 and -2.41 ± 0.2.
Regarding GCGAAGCAAUAUUACGCUCU, the “self-splicing fitness (ln)” value (30 °C) was -1.7 ± 0.24 and the “self-splicing fitness (ln)” value (37 °C) was -1.49 ± 0.38.
GUGGAGCAAUAUUACGAUGU: the “self-splicing fitness (ln)” value reads like this: (30 °C) -2.4 ± 0.23; (37 °C) -0.928 ± 0.29.
On to UAUGAGCAAUAUUACGGUGA, for which the “self-splicing fitness (ln)” value reads like this: (30 °C) -2.21 ± 0.16; (37 °C) -3.36 ± 0.27.
For AUCCAGCAAUAUUACGGAUG, in that order: -2.21 ± 0.094 and -1.68 ± 0.12.
Take ACCUAGCAAUAUUACGAUUU: the “self-splicing fitness (ln)” value was -0.879 ± 0.064 (30 °C) and -0.0104 ± 0.079 (37 °C).
With AUCUAGCAAUAUUACGAAGU, the “self-splicing fitness (ln)” value is -0.522 ± 0.24 (30 °C) and -0.543 ± 0.31 (37 °C).
Consider UGUUAGCAAUAUUACGGAAA, for which, for the setting “37 °C”, the “self-splicing fitness (ln)” value is -2.24 ± 0.39.
Take UGAAAGCAAUAUUACGUAAA: the “self-splicing fitness (ln)” value reads like this: (30 °C) -1.75 ± 0.082; (37 °C) -0.9 ± 0.098.
Take AUAAAGCAAUAUUACGACGG: the “self-splicing fitness (ln)” value is, setting by setting: (30 °C) -1.66 ± 0.096; (37 °C) -0.375 ± 0.12.
As to ACGCAGCAAUAUUACGUCGG, the “self-splicing fitness (ln)” value is, setting by setting: (30 °C) -1.23 ± 0.067; (37 °C) -1.14 ± 0.1.
For the sequence GUAUAGCAAUAUUACGAGUC, the “self-splicing fitness (ln)” value was -3.65 ± 0.38 (30 °C) and -0.711 ± 0.19 (37 °C).
For CGACAGCAAUAUUACGGGCA, the “self-splicing fitness (ln)” value is -1.24 ± 0.14 (30 °C) and 0.117 ± 0.13 (37 °C).
For the sequence AAACAGCAAUAUUACGGCUU, the “self-splicing fitness (ln)” value is, setting by setting: (30 °C) -0.312 ± 0.052; (37 °C) 0.129 ± 0.07.
Regarding CUUAAGCAAUAUUACGGAGU, the “self-splicing fitness (ln)” value is, setting by setting: (30 °C) -2.92 ± 0.099; (37 °C) -2.31 ± 0.12.
For the sequence UAGCAGCAAUAUUACGUCGA, the “self-splicing fitness (ln)” value by setting is: (30 °C) -1.12 ± 0.071; (37 °C) -0.528 ± 0.082.
For the sequence GGAGAGCAAUAUUACGGUCG, the “self-splicing fitness (ln)” value is, setting by setting: (30 °C) -1.18 ± 0.25; (37 °C) -1.56 ± 0.29.
Turning to ACAAAGCAAUAUUACGUACG, the “self-splicing fitness (ln)” value runs as follows: (30 °C) -1.84 ± 0.068; (37 °C) -0.615 ± 0.087.
Take UUAGAGCAAUAUUACGCAGC: the “self-splicing fitness (ln)” value (30 °C) was -3.08 ± 0.35.
On to GGAGAGCAAUAUUACGUUAG, for which the “self-splicing fitness (ln)” value runs as follows: (30 °C) -3.5 ± 0.23; (37 °C) -1.54 ± 0.41.
For UAUAAGCAAUAUUACGAGCA, in that order: -0.842 ± 0.23 and -0.234 ± 0.18.
On to AGGUAGCAAUAUUACGAGCU, for which the “self-splicing fitness (ln)” value (30 °C) was -0.0909 ± 0.015 and the “self-splicing fitness (ln)” value (37 °C) is -0.123 ± 0.034.
With GCCUAGCAAUAUUACGCGGC, the “self-splicing fitness (ln)” value runs as follows: (30 °C) -3.58 ± 0.35; (37 °C) -2 ± 0.28.
For GGCCAGCAAUAUUACGUACA, in that order: -2.75 ± 0.17 and -1.71 ± 0.15.
On the same counts, the results for UAUUAGCAAUAUUACGCACG are -0.859 ± 0.16 and 0.0642 ± 0.17.
For the sequence GUCAAGCAAUAUUACGAGAC, the “self-splicing fitness (ln)” value by setting is: (30 °C) -3.46 ± 0.19; (37 °C) -3.84 ± 0.26.
On the same counts, the results for GUAUAGCAAUAUUACGGAUG are -2.65 ± 0.39 and -1.99 ± 0.25.
On to UACUAGCAAUAUUACGGCCG, for which the “self-splicing fitness (ln)” value by setting is: (30 °C) 0.508 ± 0.14; (37 °C) 0.00712 ± 0.17.
For the sequence UUUGAGCAAUAUUACGAGGG, the “self-splicing fitness (ln)” value was -3.32 ± 0.32 (30 °C) and -0.691 ± 0.24 (37 °C).
On the same counts, the results for CAAGAGCAAUAUUACGUGGU are -3.24 ± 0.11 and -2.46 ± 0.16.
As to CUGUAGCAAUAUUACGGUAU, the “self-splicing fitness (ln)” value (30 °C) is -2.41 ± 0.15 and the “self-splicing fitness (ln)” value (37 °C) was -2.08 ± 0.18.
With UACCAGCAAUAUUACGUAAG, the “self-splicing fitness (ln)” value runs as follows: (30 °C) -3.73 ± 0.15; (37 °C) -1.99 ± 0.15.
Take AGCAAGCAAUAUUACGGCAC: the “self-splicing fitness (ln)” value is, setting by setting: (30 °C) -0.889 ± 0.08; (37 °C) -0.371 ± 0.11.
As to CUACAGCAAUAUUACGUUAC, the “self-splicing fitness (ln)” value runs as follows: (30 °C) -4.4 ± 0.26; (37 °C) -3.72 ± 0.33.
As to GGCAAGCAAUAUUACGAGUU, the “self-splicing fitness (ln)” value is -1.94 ± 0.081 (30 °C) and -0.521 ± 0.088 (37 °C).
With AUCAAGCAAUAUUACGAAGU, the “self-splicing fitness (ln)” value runs as follows: (30 °C) -2.52 ± 0.11; (37 °C) -1.22 ± 0.12.
GAGAAGCAAUAUUACGCUCG: the “self-splicing fitness (ln)” value by setting is: (30 °C) -1.07 ± 0.14; (37 °C) 0.735 ± 0.18.
As to AUUAAGCAAUAUUACGGGUA, the “self-splicing fitness (ln)” value is, setting by setting: (30 °C) -2.2 ± 0.17; (37 °C) -0.0398 ± 0.12.
With UUGGAGCAAUAUUACGGAUA, the “self-splicing fitness (ln)” value by setting is: (30 °C) -2.85 ± 0.21; (37 °C) -2.04 ± 0.23.
For UUUCAGCAAUAUUACGUAUA, in that order: -0.408 ± 0.21 and -0.0411 ± 0.25.
Take UUUUAGCAAUAUUACGCUCG: the “self-splicing fitness (ln)” value was -0.861 ± 0.14 (30 °C) and -0.128 ± 0.16 (37 °C).
For the sequence GAAGAGCAAUAUUACGUGAA, the “self-splicing fitness (ln)” value (30 °C) was -2.94 ± 0.15 and the “self-splicing fitness (ln)” value (37 °C) was -2.03 ± 0.17.
CCGAAGCAAUAUUACGGCCG: the “self-splicing fitness (ln)” value (30 °C) was -0.396 ± 0.099 and the “self-splicing fitness (ln)” value (37 °C) is -0.442 ± 0.12.
For GACGAGCAAUAUUACGAGUC, the “self-splicing fitness (ln)” value by setting is: (30 °C) -3.37 ± 0.2; (37 °C) -2.85 ± 0.31.
For UCCAAGCAAUAUUACGAGCA, in that order: -0.834 ± 0.08 and -0.0464 ± 0.1.
